± gives the uncertainty stated by the source.
Test: self-splicing fitness, log relative to wild type (ln ratio); higher = more splicing; Tetrahymena group I intron in knt gene, E. coli kanamycin selection, DiMSum; sequences stand for … in CUCUCU…GGAGGGAAAAGUUAUCAGGCAUGCACCUGGUAGCUAGUCUUUAAACCAAUAGAUUGCAUCGGUUUAAAAGGCAAGACCGUCAAAUUGCGGGAAAGGGGUCAACAGCCGUUCAGUACCAAGUCUCAGGGGAAACUUUGAGAUGGCCUUGCAAAGGGUAUGGUAAUAAGCUGACGGACAUGGUCCUAACCACGCAGCCAAGUCCUAAGUCAACAGAUCUUCUGUUGAUAUGGAUGCAGUUCACAGACUAAAUGUCGGUCGGGGAAGAUGUAUUCUUCUCAUAAGAUAUAGUCGGACCUCUCCUUAAUGGGAGCUAGCGGAUGAAGUGAUGCAACACUGGAGCCGCUGGGAACUAAUUUGUAUGCGAAAGUAUAUUGAUUAGUUUUGGAGUACUCGUGGUCG
In short: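 DiMSum derived fitness as the error-weighted combination of fold changes across replicates, kanamycin versus no kanamycin, normalised to wild type. E. coli BL21(DE3) held the library, which randomised all eight P1ex-region intron nucleotides within the knt kanamycin-resistance gene on pET-22b(+). Six replicate transformations grew overnight at 37°C or 30°C on LB agar with or without 25 μg/mL kanamycin, also containing 100 μg/mL carbenicillin, 50 μM IPTG and 0.2% rhamnose, and pooled colonies were amplicon-sequenced on an Illumina HiSeq 2500.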

Sequence	self-splicing fitness (ln) (30 °C)	self-splicing fitness (ln) (37 °C)
AUAGAGCAAUAUUACGCGGU	-4.29 ± 0.35	-1.64 ± 0.24
AUGCAGCAAUAUUACGAGGG	-2.51 ± 0.15	-3.09 ± 0.26
UAUAAGCAAUAUUACGGCCU	-0.92 ± 0.16	-0.641 ± 0.23
CAUAAGCAAUAUUACGGCGC	-2.68 ± 0.42	-3.17 ± 0.35
UGCAAGCAAUAUUACGUCGA	-1.09 ± 0.082	-0.989 ± 0.089
UAUGAGCAAUAUUACGGCAU	-2.94 ± 0.27	-2.05 ± 0.41
CUCAAGCAAUAUUACGCGGU	-3.45 ± 0.19	-1.07 ± 0.12
ACCGAGCAAUAUUACGCCGA	-2.48 ± 0.47	-2.74 ± 0.38
GCUUAGCAAUAUUACGUUGC	-2.46 ± 0.15	-0.535 ± 0.12
GGCUAGCAAUAUUACGCCAG	-1.55 ± 0.23	–
AGGGAGCAAUAUUACGCCUU	-3.04 ± 0.36	–
CUCCAGCAAUAUUACGGCCU	-3.5 ± 0.2	-1.63 ± 0.24
CCGCAGCAAUAUUACGCCGG	-3.15 ± 0.38	-3 ± 0.43
ACGUAGCAAUAUUACGCAGU	-2.58 ± 0.2	-2.54 ± 0.24
GUUGAGCAAUAUUACGCCGG	–	0.442 ± 0.29
UAACAGCAAUAUUACGGUGG	-1.67 ± 0.067	-1.06 ± 0.084
ACCUAGCAAUAUUACGGCUG	-4.76 ± 0.36	-2.32 ± 0.18
UUGGAGCAAUAUUACGACAG	-1.57 ± 0.15	-1.23 ± 0.18
CAAUAGCAAUAUUACGUUCC	-2.6 ± 0.26	-2.13 ± 0.35
UGGAAGCAAUAUUACGUAGC	-2.29 ± 0.21	-0.661 ± 0.24
GGCGAGCAAUAUUACGGUCC	–	-2.99 ± 0.43
CACAAGCAAUAUUACGGCAU	-3.26 ± 0.12	-2.33 ± 0.12
GUUGAGCAAUAUUACGCACU	-1.26 ± 0.15	-0.723 ± 0.2
CACCAGCAAUAUUACGCAAU	-4.25 ± 0.18	-4.19 ± 0.16
AUAGAGCAAUAUUACGACAU	0.275 ± 0.013	0.437 ± 0.033
CCUAAGCAAUAUUACGUUGU	-3.37 ± 0.16	-2.15 ± 0.15
CUAUAGCAAUAUUACGCUUU	-4.86 ± 0.45	-3.17 ± 0.28

Sequence	self-splicing fitness (ln) (30 °C)	self-splicing fitness (ln) (37 °C)
GGAGAGCAAUAUUACGAUGC	-2.8 ± 0.33	-0.975 ± 0.22
UCGUAGCAAUAUUACGCAAC	–	-2.42 ± 0.48
CUUUAGCAAUAUUACGAGGC	-2.85 ± 0.41	-1.36 ± 0.26
GUGUAGCAAUAUUACGAGCC	-2.65 ± 0.38	-2.28 ± 0.31
CGUUAGCAAUAUUACGCGGG	-3.91 ± 0.24	-3.13 ± 0.29
GAUGAGCAAUAUUACGACCG	-2.84 ± 0.36	-1.95 ± 0.43
CUGCAGCAAUAUUACGUGUG	-1.65 ± 0.043	-1.27 ± 0.06
AUACAGCAAUAUUACGCUGA	-2.14 ± 0.099	-0.86 ± 0.1
CCCGAGCAAUAUUACGAAGG	–	-2.18 ± 0.23
UACAAGCAAUAUUACGUGCA	-0.352 ± 0.083	-0.366 ± 0.1
UGACAGCAAUAUUACGUGGA	-3 ± 0.21	-2.31 ± 0.2
ACCUAGCAAUAUUACGCCCA	-1.16 ± 0.11	-0.343 ± 0.12
GGAGAGCAAUAUUACGAGUU	-4 ± 0.35	–
GAGGAGCAAUAUUACGGAGG	–	-2.2 ± 0.24
AGCAAGCAAUAUUACGCUUG	-4.25 ± 0.28	-1.29 ± 0.2
GGCCAGCAAUAUUACGGUUG	-0.224 ± 0.062	-0.166 ± 0.075
GCUAAGCAAUAUUACGCGGU	-2.97 ± 0.27	-2.72 ± 0.25
AUACAGCAAUAUUACGCGAA	-1.42 ± 0.12	-0.301 ± 0.12
UUCUAGCAAUAUUACGCUCU	-1.9 ± 0.15	-1.77 ± 0.15
UCCUAGCAAUAUUACGGAUC	-3.39 ± 0.23	-2.53 ± 0.26
ACCCAGCAAUAUUACGUACC	-1.85 ± 0.12	-1.63 ± 0.15
CGGAAGCAAUAUUACGGCUA	-2.54 ± 0.46	-0.623 ± 0.28
AGCUAGCAAUAUUACGUCUG	-1.88 ± 0.097	-1.56 ± 0.13
AGACAGCAAUAUUACGCUUC	-3.78 ± 0.28	-1.86 ± 0.27
AAAAAGCAAUAUUACGCUUA	-1.36 ± 0.13	-0.916 ± 0.12
CGCCAGCAAUAUUACGUGGU	-3.15 ± 0.18	-3.22 ± 0.26
UCAAAGCAAUAUUACGCAGU	-3.16 ± 0.19	-3.42 ± 0.31

Sequence	self-splicing fitness (ln) (30 °C)	self-splicing fitness (ln) (37 °C)
ACACAGCAAUAUUACGGUAU	-2.59 ± 0.088	-1.59 ± 0.092
UAUAAGCAAUAUUACGAUCU	-1.22 ± 0.11	0.0539 ± 0.12
GGCUAGCAAUAUUACGAAAG	-2.44 ± 0.26	-2.4 ± 0.44
GAAUAGCAAUAUUACGAAUG	-1.42 ± 0.24	-1.15 ± 0.28
GUACAGCAAUAUUACGCGCG	-1.45 ± 0.19	-0.578 ± 0.17
UGAUAGCAAUAUUACGAAAA	-1.85 ± 0.31	-2.48 ± 0.4
ACACAGCAAUAUUACGCAGG	-2.43 ± 0.093	-1.82 ± 0.1
ACCGAGCAAUAUUACGAGAU	-2.96 ± 0.12	-2.48 ± 0.18
UGAAAGCAAUAUUACGGGUC	–	-2.71 ± 0.25
GGCAAGCAAUAUUACGAGCU	-2.69 ± 0.18	-1.67 ± 0.23
ACUGAGCAAUAUUACGAGGG	-2.5 ± 0.18	-2.21 ± 0.33
CCUCAGCAAUAUUACGCACA	-3.09 ± 0.48	-2.02 ± 0.26
UUUAAGCAAUAUUACGACGC	-3.48 ± 0.2	-0.476 ± 0.16
AUUAAGCAAUAUUACGCGAA	-1.32 ± 0.11	-0.882 ± 0.13
GGUGAGCAAUAUUACGAACG	-0.652 ± 0.13	-1.23 ± 0.17
CUAGAGCAAUAUUACGAGAG	-0.641 ± 0.071	-0.393 ± 0.099
UGAAAGCAAUAUUACGACAU	-1.26 ± 0.013	-0.435 ± 0.032
AUCAAGCAAUAUUACGCAUU	-2.32 ± 0.12	-1.69 ± 0.14
AGCUAGCAAUAUUACGCAUA	-2.4 ± 0.12	-1.22 ± 0.14
UUCCAGCAAUAUUACGUCCG	-2.28 ± 0.18	0.24 ± 0.2
UGCGAGCAAUAUUACGUUUU	-5.01 ± 0.45	-3.25 ± 0.24
AUCGAGCAAUAUUACGUAGG	-3.82 ± 0.39	-2.04 ± 0.2
GAAAAGCAAUAUUACGUACG	-1.16 ± 0.061	-0.9 ± 0.079
CUAAAGCAAUAUUACGGCAU	-3.69 ± 0.27	-3.09 ± 0.4
AGAAAGCAAUAUUACGGACU	-0.691 ± 0.079	0.112 ± 0.089

— the supplement of paper PMC7877785
